Like-named read-outs stand apart in the source and are kept apart here. No end group written: not given here.

The test system of one experiment is HepG2 cells. As to the kind of experiment: Cellular uptake by confocal laser scanning microscopy. It counts as cell-based, human. To be noted: HepG2, 20 µg/ml, 4 h at 37 °C, CLSM, LysoTracker and Hoechst staining. As to the method: Recombinant NvCI was fluorescently labelled with an Alexa Fluor 488 Protein Labeling Kit (Molecular Probes, Eugene, OR, USA). HepG2 cells were seeded in a 35 mm glass-bottom culture dish (MatTek Corporation, Ashland, MA, USA) at a density of 4 × 10^5 cells/well and incubated for 24 h. The cells were incubated with 20 µg/ml Alexa 488-NvCI for 4 h at 37 °C. Prior to imaging, lysosomes and nuclei were stained with Lysotracker Red and Hoechst (Invitrogen, Carlsbard, CA, USA), respectively, for 90 or 10 min.

Experiment [1] addresses T1, bCPA1 (Bos taurus, UniProt P00730).
T1 sequence (P00730 111-419): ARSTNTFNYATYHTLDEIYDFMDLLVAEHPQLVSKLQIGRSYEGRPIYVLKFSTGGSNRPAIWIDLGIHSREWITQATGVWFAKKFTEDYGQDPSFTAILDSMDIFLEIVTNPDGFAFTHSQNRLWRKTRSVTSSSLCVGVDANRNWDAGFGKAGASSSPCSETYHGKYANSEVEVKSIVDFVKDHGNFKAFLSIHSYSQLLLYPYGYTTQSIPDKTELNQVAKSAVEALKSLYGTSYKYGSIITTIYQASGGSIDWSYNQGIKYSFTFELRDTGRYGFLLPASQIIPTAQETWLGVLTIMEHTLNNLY
As to the kind of experiment: Ki determination, tight-binding inhibition of metallocarboxypeptidase. The class given is biochemical, bovine. Particulars: natural isoforms; apparent Ki, without correction by competing assays; read-out: derived Ki towards bCPA (apparent Ki values). The method, then: Inhibitory activities against CPA- and CPB-type forms (bovine and human variants of CPA1, CPA2, CPA4, CPB1, and TAFI) were assayed for all extracts, subject to the experimental conditions that enzyme (E), substrate (S) and inhibitor (I) concentrations as well as the [I]/[E] ratio and preincubation time followed the requirements for tight-binding inhibitor assays. Similar approaches were followed to measure the activities of proteases of different catalytic types, like pepsin, papain, trypsin and subtilisin [45, 46, 47, 48]. All assays were performed in triplicate at 25 °C in a multiplexed manner. For 96-well assays an iEMS spectrophotometer reader/dispenser FM (Labsystems, Finland) was used with a final reaction volume of 250 μL. For cuvette assays, a Cary 400 Bio spectrophotometer (Varian Inc., Palo Alto, CA, USA) spectrophotometer was used with a final reaction volume of 1 ml. The reactions were followed at 5 s intervals for 5 min and recorded as initial velocities. In the protease inhibition assays, mixtures of activity buffer, biological sample and enzyme were preincubated at 25 °C for 10min, before substrate addition. The assay conditions were as follows: for CPA-like enzymes, 7.0nM CPA, 0.1mM AAFP substrate in 20mM Tris-HCl pH 7.5, 500mMNaCl, 1% v/v dimethyl sulfoxide (DMSO), 0.05% w/v BRIJ-35 was used. For CPB-like enzymes, CPB 3.0nM CPB, 0.1mM AAFA substrate and activity buffer of 20 mM Tris-HCl pH [50].
The Ki values of natural and recombinant NvCI against bCPA1, hCPA1, hCPA2, rat CPA3, hCPA4, hCPB1, bTAFI, hTAFI, hCPD and hCPZ were determined by measuring the enzymatic residual activity (Vi/V0 = a) at different inhibitor concentrations and using a fixed enzyme and substrate concentrations as described above, where vi and v0 are the fraction of enzymatic activity in the presence and absence of inhibitor, respectively, in terms of initial velocities. The determination of Ki values was carried out on equilibrium conditions ([E0]/Ki ≤ 10), using a previously determined preincubation time of 15 min, required to establish enzyme-inhibitor equilibrium. Working temperature was 37 °C. The best estimates of Ki values were obtained by fitting the experimental data to the equation for tight-binding inhibitors by non-linear regression using the GraphPad Prisma 5 software (GraphPad Software, Inc., San Diego, CA, USA) at p < 0.05. The real Ki values against each of these A/B-type MCPs were calculated according to the equation described by Morrison and Copeland [19, 20].

Another experiment addresses T2, pCPB (Sus scrofa, UniProt P09955).
T2 sequence (P09955 111-416): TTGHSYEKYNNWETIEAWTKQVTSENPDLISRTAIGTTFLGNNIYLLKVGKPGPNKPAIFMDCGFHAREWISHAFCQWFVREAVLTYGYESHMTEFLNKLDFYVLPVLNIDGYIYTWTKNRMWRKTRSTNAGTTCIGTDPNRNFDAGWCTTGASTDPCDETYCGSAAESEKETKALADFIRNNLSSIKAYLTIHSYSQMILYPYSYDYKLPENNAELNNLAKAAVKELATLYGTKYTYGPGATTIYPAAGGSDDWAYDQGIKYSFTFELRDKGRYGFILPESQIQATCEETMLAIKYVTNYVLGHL
Particulars: ref Arolas et al., 2004 [21]; cited from earlier work. An excerpt:
Table 2 Ki values of various proteinaceous metallocarboxypeptidases (MCPs) inhibitors. | column: Ki (nM) / rPCI (a); Ki (nM) / rTCI (b); Ki (nM) / rLCI (c)

The next experiment addresses T3, hCPA4 (Homo sapiens, UniProt Q9UI42).
T3 sequence (Q9UI42 114-421): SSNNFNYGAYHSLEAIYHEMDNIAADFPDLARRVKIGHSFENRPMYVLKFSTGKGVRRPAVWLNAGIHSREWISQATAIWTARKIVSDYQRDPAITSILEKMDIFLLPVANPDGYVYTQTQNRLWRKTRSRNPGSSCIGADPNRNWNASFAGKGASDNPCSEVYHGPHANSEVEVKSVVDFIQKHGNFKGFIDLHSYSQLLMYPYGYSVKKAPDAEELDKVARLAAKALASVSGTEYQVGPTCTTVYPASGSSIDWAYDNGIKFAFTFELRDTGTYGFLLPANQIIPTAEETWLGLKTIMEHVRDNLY
To be noted: cited from earlier work. An excerpt:
(§1) Table 2 Ki values of various proteinaceous metallocarboxypeptidases (MCPs) inhibitors. | column: Ki (nM) / rPCI (a); Ki (nM) / rTCI (b); Ki (nM) / rLCI (c); Ki (nM) / rACI (d); Ki (nM) / rhuman latexin (e)

The target in a further experiment is T4, hCPA2 (Homo sapiens, UniProt P48052).
T4 sequence (P48052 115-419): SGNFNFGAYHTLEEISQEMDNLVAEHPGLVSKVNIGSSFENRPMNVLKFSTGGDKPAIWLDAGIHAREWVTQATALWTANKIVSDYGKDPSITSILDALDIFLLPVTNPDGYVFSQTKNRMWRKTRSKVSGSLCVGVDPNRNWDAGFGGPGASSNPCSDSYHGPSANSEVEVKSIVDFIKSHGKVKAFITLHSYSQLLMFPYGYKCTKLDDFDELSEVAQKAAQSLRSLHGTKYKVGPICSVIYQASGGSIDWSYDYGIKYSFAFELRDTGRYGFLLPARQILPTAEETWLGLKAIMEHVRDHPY
To be noted: cited from earlier work.
Description: as §1

Experiment [2] concerns the target T1, bCPA1. Particulars: cited from earlier work.
Description: as §1

For another experiment, the target named is T5, hCPA1 (Homo sapiens, UniProt P15085).
T5 sequence (P15085 111-419): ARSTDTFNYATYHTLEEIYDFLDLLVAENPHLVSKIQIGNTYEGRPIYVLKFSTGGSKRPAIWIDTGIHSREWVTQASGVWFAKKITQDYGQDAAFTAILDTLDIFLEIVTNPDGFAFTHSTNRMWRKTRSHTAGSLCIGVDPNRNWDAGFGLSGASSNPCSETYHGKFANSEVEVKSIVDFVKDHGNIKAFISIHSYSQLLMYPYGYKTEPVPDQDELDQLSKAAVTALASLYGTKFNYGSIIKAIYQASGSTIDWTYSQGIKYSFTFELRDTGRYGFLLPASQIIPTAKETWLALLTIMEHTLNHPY
Particulars: cited from earlier work.
Description: as §1

For another experiment, the target named is T6, hCPB (Homo sapiens, UniProt P15086).
T6 sequence (P15086 111-417): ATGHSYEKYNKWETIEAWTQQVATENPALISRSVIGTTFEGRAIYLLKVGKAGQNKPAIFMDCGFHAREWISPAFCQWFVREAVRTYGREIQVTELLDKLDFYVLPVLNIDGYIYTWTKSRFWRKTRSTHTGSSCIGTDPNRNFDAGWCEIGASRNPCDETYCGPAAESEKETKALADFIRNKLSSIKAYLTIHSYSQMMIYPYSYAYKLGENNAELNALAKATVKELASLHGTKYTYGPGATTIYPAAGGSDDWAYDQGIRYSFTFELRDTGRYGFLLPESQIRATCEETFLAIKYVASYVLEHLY
Particulars: cited from earlier work. The source says: Table 2 Ki values of various proteinaceous metallocarboxypeptidases (MCPs) inhibitors. | column: Ki (nM) / rPCI (a); Ki (nM) / rTCI (b); Ki (nM) / rLCI (c); Ki (nM) / rhuman latexin (e)

For another experiment, the target named is T7, hTAFI (Homo sapiens, UniProt Q96IY4).
T7 sequence (Q96IY4 115-423): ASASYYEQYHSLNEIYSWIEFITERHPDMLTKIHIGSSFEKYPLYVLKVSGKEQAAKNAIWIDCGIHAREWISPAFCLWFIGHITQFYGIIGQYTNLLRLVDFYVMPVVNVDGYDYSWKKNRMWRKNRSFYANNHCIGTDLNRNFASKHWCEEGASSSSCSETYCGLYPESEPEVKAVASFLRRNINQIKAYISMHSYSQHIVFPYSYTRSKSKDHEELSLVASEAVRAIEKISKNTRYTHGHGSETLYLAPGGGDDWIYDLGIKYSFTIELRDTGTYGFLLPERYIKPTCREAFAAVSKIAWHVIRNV
Particulars: cited from earlier work. An excerpt: Table 2 Ki values of various proteinaceous metallocarboxypeptidases (MCPs) inhibitors. | column: Ki (nM) / rPCI (a); Ki (nM) / rTCI (b); Ki (nM) / rACI (d); Ki (nM) / rhuman latexin (e)

For the molecule “Alexa488-labelled NvCI: recombinant NvCI fluorescently labelled with an Alexa Fluor 488 Protein Labeling Kit (FHVPDDRPCINPGRCPLVPDATCTFVCKAADNDFGYECQHVWTFEGQRVGCYA; ends and bridges not checked; also: Alexa Fluor 488 label; UniProt P86912 1-53, looked up)”, in the experiment on HepG2 cells, the “cellular uptake / internalization” value is on record as “internalized NvCI was distributed through the cytoplasm”.
Turning to “NvCIb: natural isoform of NvCI with N→K substitution at the 11th residue (FHVPDDRPCIKPGRCPLVPDATCTFVCKAADNDFGYECQHVWTFEGQRVGCYA; three intrachain disulphides)”, the Ki with bCPA1 [1] stood at 0.038 ± 0.002 nM.
In the case of “NvCIc: minor natural isoform, lacks the N-terminal Phe as compared to NvCIa (HVPDDRPCINPGRCPLVPDATCTFVCKAADNDFGYECQHVWTFEGQRVGCYA; three intrachain disulphides)”, the Ki with bCPA1 [1] is 0.049 ± 0.002 nM.
The same measure, in the same setting: the result for “NvCId: minor natural isoform, lacks the N-terminal Phe as compared to NvCIb (HVPDDRPCIKPGRCPLVPDATCTFVCKAADNDFGYECQHVWTFEGQRVGCYA; three intrachain disulphides)” reads 0.022 ± 0.001 nM.

B1: rLCI: recombinant carboxypeptidase inhibitor from the medical leech Hirudo medicinalis (protein, UniProt P81511 16-81, looked up)
Metallocarboxypeptidase …: SHTPDESFLCYQPDQVCCFICRGAAPLPSEGECNPHPTAPWCREGAVEWVPYSTGQCRTTCIPYVE
With B1, the Ki with pCPB was 2.4 ± 0.5 nM; with hCPA4 (ref Tanco et al., 2010 [22]), 7.3 ± 0.4 nM; with hCPA2 (ref Arolas et al., 2004 [21]), 4.5 ± 0.6 nM; in the experiment with bCPA1 [2] (ref Arolas et al., 2004 [21]), 1.1 ± 0.2 nM; with hCPA1 (ref Arolas et al., 2004 [21]), 1.3 ± 0.4 nM; with hCPB (ref Arolas et al., 2004 [21]) it was 1.2 ± 0.3 nM.

B2: rhuman latexin: recombinant human latexin, larger (19–22 kDa) endogenous protein inhibitor of carboxypeptidases (protein, UniProt Q9BS40 1-222, looked up)
Latexin: MEIPPTNYPASRAALVAQNYINYQQGTPHRVFEVQKVKQASMEDIPGRGHKYHLKFAVEEIIQKQVKVNCTAEVLYPSTGQETAPEVNFTFEGETGKNPDEEDNTFYQRLKSMKEPLEAQNIPDNFGNVSPEMTLVLHLAWVACGYIIWQNSTEDTWYKMVKIQTVKQVQRNDDFIELDYTILLHNIASQEIIPWQMQVLWHPQYGTKVKHNSRLPKEVQLE
With B2, the Ki with hCPA4 (ref Pallarès et al., 2005 [15]) is 3 ± 0.3 nM; with hCPA2 (ref Pallarès et al., 2005 [15]) it was 3.5 ± 0.3 nM; with bCPA1 [2] (ref Pallarès et al., 2005 [15]), 1.2 ± 0.2 nM; with hCPA1 (ref Pallarès et al., 2005 [15]), 1.6 ± 0.2 nM; with hTAFI (ref Pallarès et al., 2005 [15]), 1.8 ± 0.3 nM; with hCPB (ref Pallarès et al., 2005 [15]), 1.1 ± 0.1 nM.

B3: rACI: recombinant carboxypeptidase inhibitor from the intestinal parasite Ascaris suum (protein)
chain: VRKCLSDTDCTNGEKCVQKNKICSTIVEIQRCEKEHFTIPCKSNNDCQVWAHEKICNKGCCWDLL
modifications: intrachain disulphides
B3: the Ki with hCPA4 (ref Sanglas et al., 2009 [10]) was 23.9 ± 3.1 nM; in the experiment with hCPA2 (ref Sanglas et al., 2009 [10]) it was 2.5 ± 0.2 nM; with bCPA1 [2] (ref Sanglas et al., 2009 [10]), 2.4 ± 0.3 nM; with hCPA1 (ref Sanglas et al., 2009 [10]) it was 1.6 ± 0.2 nM; in the experiment with hTAFI (ref Sanglas et al., 2009 [10]), 42 ± 1.7 nM.
